Assay results reported in the emibetuzumab library of Makowski et al. (2022).

B1: VH:VL chains; a variant is named by its letters at X, in order (parent)
chain 1: QVQLVQSGAEVKKPGASVKVSCKASGYTFTDYXMHWVRQAPGQGLEWMGXVNPNXXXTTYNQKFEGRVTMTTDTSTSTAYMELRSLRSDDTAVYYCARXNXLDXWGQGTTVTVSS
chain 2: DIQMTQSPSSLSASVGDRVTITCSVSSSVSSIYLHWYQQKPGKAPKLLIYSTSNLASGVPSRFSGSGSGTDFTLTISSLQPEDFATYYCQVYSGYPLTFGGGTKVEIK

Variants of: B1
Test: yeast display scFab, FACS + sequencing
Outline: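 Heavy-chain CDR mutant scFab yeast surface library, FACS-sorted after labelling with biotinylated ovalbumin (260 μg/mL in PBSB, 3 h, room temperature) or soluble membrane proteins (130 μg/mL, 20 min on ice), plus anti-Myc. Gates collected the top 25% and bottom 10% of binders, and samples from two replicates were deep sequenced. Non-specific binding call: a sequence was positive if found in ≥3 of 4 positive samples (membrane protein and ovalbumin pooled) and no negatives, and negative by the converse rule.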

Variant	non-specific binding call
VAERSFGV	binds
SAAGSVWY	no binding
VAEKGDGV	no binding
VAEKGDGA	no binding
VAEKGDWY	no binding
VAGGDYLV	no binding
VAAKNDGA	no binding
VAEKGFLV	binds
FAGGGDGA	no binding
DAARGDAA	no binding
DAARGDAV	no binding
DAEEDAGY	no binding
FAAKTAAA	binds
DAEATSWV	no binding
SAEATDLY	no binding
SAAGGDVA chain 1 L45S	no binding
YAAKSDGY	binds
YAEATDLY	no binding
VAGGDDWV	no binding
FAGGGAGS	no binding
FAGGGAGA	no binding
YAGGDFAY	no binding
DAARGDVV	no binding

Variant	non-specific binding call
DAARGDSA	no binding
FAAETDVF	no binding
DAEGGSLD	no binding
VAGAGYGA	binds
DAGGADGV	no binding
YAEESSAD	no binding
DAAGAAGV	no binding
YAGEGFGV	no binding
YAEKDFGV	no binding
VAEGDAAD	no binding
SAGEGSLV	no binding
VAGAGDSV	no binding
YAGAAAVD	binds
SAGEGDWV	no binding
VAEKDDGS	no binding
DAAGADWY	no binding
DAGGDDGA	no binding
DAGAAAGD	no binding
FAARSYGD	binds
YAEESSSA	no binding
YAGAGAVY	no binding
DAGGDDVY	no binding
SAAGGAAD chain 1 L45S	no binding

Variant	non-specific binding call
DAERDSGV	no binding
VAEEDAGY	no binding
VAGGAYLY	no binding
VAGGGAGV	no binding
YAARAAVD	binds
SAEKDDGS	no binding
DAARGSSV	no binding
SAGEGDVF	no binding
SAGEGDVY	no binding
YAEEGVGY	binds
FAARDSGA	no binding
SAAGGAGA chain 1 L45S	no binding
FAGGDYGS	binds
YAEESSGV	no binding
YAGETFGA	binds
DAGGGAGD	no binding
VAEKGDAA	no binding
AAGGDYVF	no binding
FAGEGAGV	no binding
VAGGDALD	no binding
SAEGGSSA	no binding
SAGEGDGV	no binding
YAGGGDGA	no binding

Variant	non-specific binding call
DAGAADVV	no binding
VAATGVSD	binds
FAARAFGV	binds
YAARGAAV	binds
VAGGDAVA	no binding
VAGGDAVV	no binding
YAEESDGS	no binding
YAGAGSAD	no binding
DAATAYGS	binds
VAGAGDVV	no binding
YAAAAFGY	binds
DAEATSLV	no binding
DAGGGAAV	no binding
YAEESDWV	no binding
DAATADSS	no binding
YAAGSDVY	no binding
SAEGDAAD	no binding
YAAGASVD	no binding
FAAGSSGS	binds
DAGGAAAA	no binding
DAGGAAAV	no binding
DAGGAAAD	no binding
VAETAAAA	no binding

Variant	non-specific binding call
DAGGDAGD	no binding
YAAKTAAA	binds
VAATADSS	no binding
FAEGDDVA	no binding
FAEGDDVV	no binding
FAEGDDVY	no binding
YAEGGYGV chain 1 V68I	binds
FAAGGAWA	binds
VAGGDAAA	no binding
YAAGGDGV	no binding
YAEESDVA	no binding
FAGGGDAV	no binding
FAAGSYAV	binds
YAGGDDGA	no binding
YAAKNDGA	no binding
DAGAADGA	no binding
FAGGGASD	no binding
DAARGAAA	no binding
YAARGSAA	binds
